Experiments:
malate dehydrogenase = malate dehydrogenase (UniProt P00346)
[1] = target: Trypanosoma cruzi Hsp70B (Trypanosoma cruzi)
[2] = target: Trypanosoma brucei Hsp70.c (Trypanosoma brucei brucei TREU927)

Chain of UniProt P00346 (P00346 25-338): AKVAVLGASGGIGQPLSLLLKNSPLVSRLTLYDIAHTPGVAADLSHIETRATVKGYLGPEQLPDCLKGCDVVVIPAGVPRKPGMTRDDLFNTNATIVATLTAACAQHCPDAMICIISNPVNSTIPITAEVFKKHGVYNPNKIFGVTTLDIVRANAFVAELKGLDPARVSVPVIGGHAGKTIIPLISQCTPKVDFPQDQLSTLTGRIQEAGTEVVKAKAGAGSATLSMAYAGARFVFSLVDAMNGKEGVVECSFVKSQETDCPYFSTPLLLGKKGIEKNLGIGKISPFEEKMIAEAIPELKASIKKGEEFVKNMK

| stimulation of the basal ATPase activity of TcHsp70B by Tbj2 (colorimetric phosphate release, 37°C, 600 µM ATP); equal concentrations 1.39-fold, Tbj2 at 2-fold molar excess 2.62-fold [1] [fold] | stimulation of the basal ATPase activity of TbHsp70.c by Tbj2 (colorimetric phosphate release, 37°C, 600 µM ATP); equal concentrations 1.62-fold, Tbj2 at 2-fold molar excess 2.88-fold [2] [fold] | Substance | suppression of thermal aggregation of MDH (0.72 µM, 48°C, light scatter at 360 nm, 30 min) by TbHsp70.c, dose-dependent; number printed for 0.5 µM TbHsp70.c (malate dehydrogenase) [%] |
| --- | --- | --- | --- |
| – | – | Trypanosoma brucei Hsp70.c (natural protein) | 61.8 |
| 2.62 | 2.88 | Trypanosoma brucei J protein 2 (natural protein) | – |

Source: PMC3953656
